{
  "source": "patent US20120244132A1",
  "about": "(published 2012)",
  "binders": {"B1": {"name": "EBVa14-p2A-Vb7.7 (LMP-2-specific TCR of SEQ ID No. 8) (TCR, V domains shown)", "Valpha": "AQKITQTQPGMFVQEKEAVTLDCTYDTSDQSYGLFWYKQPSSGEMIFLIYQGSYDEQNATEGRYSLNFQKARKSANLVISASQLGDSAMYFCAMREGSGSARQLTFGSGTQLTVLP", "Vbeta": "GAGVSQSPRYKVTKRGQDVTLRCDPISSHATLYWYQQALGQGPEFLTYFNYEAQPDKSGLPSDRFSAERPEGSISTLTIQRTEQRDSAMYRCASSLGPAGIQETQYFGPGTRLLVL"}},
  "target": "T1, latent membrane protein 2 (LMP-2) from the Epstein Barr Virus (EBV) peptide on HLA-A*02:01 (human)",
  "T1 peptide": "CLGGLLTMV",
  "assay": "multimer staining",
  "data": [
    {"binder": "B1", "values": [
      {"measurement": "binding result", "value": "recognises"}
    ]}
  ]
}
